Results reported in the DeepSol protein solubility set.

Experiment: soluble on expression in E. coli; label from the status in PepcDB or PDB records

| Sequence | soluble on expression in E. coli |
| --- | --- |
| MSLKGIVFGSGQIGSSVALNLVDGMDVTVADRDPTNLRKIQDNIGSRVSVIQVDALRDDIKHIISDYDIVVSALPGSVGFQFAKSIAPFGVRMIDISYYEDDVFLLDDVAKKSSSVIVPDIGFAPGISNVLVGHFSYELEDVKDVHIYVGGIPEKRIGGLDYVITWSVEGLLDEYTRPVHIVQNGSITQVEPLSGLEKINIQKYTDLEAFYTDGLRTLGKTIRASGSMWEKTVRYSGHAEKIRLLKDLGFFSRKKVKVGNSEIAPFDFTAEIFRNNLSMSGVKDVSLMYVKVTGTRNGDIVKHEASMVAPYDEKRKRSSMANVTSVPASATADFLSKNEIGKYGVVAPEILGKDENFYKQFINYLGQYGIIISEGHHHHHH | not soluble |
| MSLKHSKIRIAHISDIHIGSRLDKLPQKMVNKIIEENPDLVVITGDLIDSHNVISTDLASFNAFKERNIPIYYTIGNHDIMAGEEYVSSILEYYGIIYLKNQVTQITIGDETIQLVGIDDVQSITKYNEIFNSITPSIHNNIYTILLHHRPQGYKTSVQSGQIDLQLAGHTHDGQVFPFNYIVPLFHSKSYGMYHIKDEGHHHHHH | not soluble |
| MSLKIAILYREEREKEGEFLKEKISKEHEVIEFGEANAPGRVTADLIVVVGGDGTVLKAAKKAADGTPMVGFKAGRLGFLTSYTLDEIDRFLEDLRNWNFREETRWFIQIESELGNHLALNDVTLERDLSGKMVEIEVEVEHHSSMWFFADGVVISTPTGSTAYSLSIGGPIIFPECEVLEISPIAPQFFLTRSVVIPSNFKVVVESQRDINMLVDGVLTGKTKRIEVKKSRRYVRILRPPEYDYVTVIRDKLGYGRRIEEGGSHHHHHH | soluble |
| MSLKIHGLIDAPFTPFYENGEVNYEPIEAYCQLLVRNGLQGVFINGSSGEGYMLTEDERMKLAERWMEVAPEGFKVIVHVGSTCVKSSKRLAEHAQKIGAWGIGAMAPPFPKVGRIEELVKYCEEIACGAPALPFYFYHIPAFNGAFLSMVAFLEAVDGRIPNFAGIKYTFESLYEYNQCRLYKNGKFDMLHGQDETILPCLAMGGAQGGIGGTTNYNGKELTGIIEAWKAGDLELARERQNFAQEVINVICHYRGNIVGGKRIMKLIGLDLGKNRTPFQNMTDEEEAAMKAELEAINFFEREGHHHHHH | soluble |
| MSLKITDLELHAVGIPRHTGFVNKHVIVKIHTDEGLTGIGEMSDFSHLPLYSVDLHDLKQGLLSILLGQNPFDLMKINKELTDNFPETMYYYEKGSFIRNGIDNALHDLCAKYLDISVSDFLGGRVKEKIKVCYPIFRHRFSEEVESNLDVVRQKLEQGFDVFRLYVGKNLDADEEFLSRVKEEFGSRVRIKSYDFSHLLNWKDAHRAIKRLTKYDLGLEMIESPAPRNDFDGLYQLRLKTDYPISEHVWSFKQQQEMIKKDAIDIFNISPVFIGGLTSAKKAAYAAEVASKDVVLGTTQELSVGTAAMAHLGCSLTNINHTSDPTGPELYVGDVVKNRVTYKDGYLYAPDRSVKGLGIELDESLLAKYQVPDLSWDNVTVHQLQDRTADTKSEGHHHHHH | soluble |
| MSLKITDVRAHQIRIPYDAGVASFRQGASAITALDMVIVEVTTDAGLTGWGDAFAYVCPRTTRSAVEEMIAPQARGLEVPDAAGIAAVMEQIQRNLHLFGRYGITMFAISGLDIALWDLAAKIKGVPVHRLLGETRRPAIPAYASLLRIGSPDNIAAECKKALALGYGAIKLHETTAPAVYAAREAIGPGVPLMVDMNCPLSGEQAIAFAGTCRDAQPMFLEEPVWPPEDFAALAEVRSKGGLGVAAGENACTEHQFRQMMNAGAVSHAQPSVIKVGGITEFLKVAALADRLGVKIVPHSPYFGPGLLATLHLLAGRDDGFVEMFYLKREACLWGGRADVDATGHVAVPTGLGLGYEPDRGVMERYRVAEGHHHHHH | not soluble |
| MSLKITFTDKALDYLKRREILNKILILIADDGGGKYSIKGGGCAIGSHFSIIYVDKVDPDYPIKLENDQGINIYTSKYDTTMMGPNLVVDYANASLNLKSDEGLLDGGVDIGNGAELIKAQKNVKMTGVEWRCEGHHHHHH | soluble |
| MSLKITRIDIHRTDLPVRGGVYRLSGGREYHSYDATIVSIETDTGLTGWGESTPFGSTYIAAHAGGTRAALELLAPAILGMDPRQHDRIWDRMRDTLKGHRDARAALDIACWDIAAQAAGLPLCDMTGGRVAGPVPVISSIGGDTPEAMRAKVARHRAQGFKGHSIKIGASEAEGGPALDAERITACLADRQPGEWYLADANNGLTVEHALRMLSLLPPGLDIVLEAPCASWAETKSLRARCALPLLLDELIQTETDLIAAIRDDLCDGVGLKVSKQGGITPMLRQRAIAAAAGMVMSVQDTVGSQISFAAILHLAQSTPRHLLRCALDTRAMTTAELAEIDAPLRDGGASAPSDPGLGLRVNRDALGTPVKTFGDPIEGHHHHHH | soluble |
| MSLKITSVRSFLLSYPLPEPVRLPFHGGERTILKRDAMFIRVEADSGLIGYAPGPGSEQAHKAIQQTIAPFLEDRVLADPDALRVLFLQGPGIDAELAKIYCAVEIALYDLVGKARGIPISEMIGGRVRDTIRLYGSAGMYMSPEGYAAEAAAIAALGFRAYKMRPAGGPEQDLETVRQMRKAVGPDFDLMVDAHTWWRMGDSSYPADTVEQLARDMSAYHIAWLEEPLPPDDHAGYLALKQKDLVLLATGEHEPNEDRYLDLILTQAVDYIQMDVCCQGGYALGRRLFAEIARQGLSFAFHSWGTALEVMAAAHLGICWPQMIAEWLEYPCYSSPGRVGMYPFPLAAEILTEPLEIERGDLLVPRAPGLGVAVDESVIERYPWIPGPWSYFRIDSPAENRAVTSDHSVQWDPEAKEGHHHHHH | soluble |
| MSLKKIQFFDTTLRDGEQTPGVNFDVKEKIQIALQLEKLGIDVIEAGFPISSPGDFECVKAIAKAIKHCSVTGLARCVEGDIDRAEEALKDAVSPQIHIFLATSDVHMEYKLKMSRAEVLASIKHHISYARQKFDVVQFSPEDATRSDRAFLIEAVQTAIDAGATVINIPDTVGYTNPTEFGQLFQDLRREIKQFDDIIFASHCHDDLGMATANALAAIENGARRVEGTINGIGERAGNTALEEVAVALHIRKDFYQAETNIVLNQFKNSSDLISRLSGMPVPRNEGHHHHHH | soluble |
| MSLKKKLLLMVSVLAVLFVAAACSSKPEAKINTEPYSDRQTMLGTYVQIRIYDDGKEDVLPKAFARVKELGDKITVNQPGSEIDEINQEAGVKPVKVSDDLYPLLKKAYEYSKDSRGGFDMAIGPITSMWHIGFDDARKPSQAEIDQALKLVDYTKVKFNDKEQTVYLEEKGMQLDLGAIAKGFITDEVVKVLKDNGVTTAIVDLGGNVYVLGHSPRGKDMDWTVGIQDPNKARNTVLGQVKESNKTLVTSGIYERYLKVDGKTYHHLFDRETGYPFDNDIAGVTIITDKSIDGDGLSTAVFSMGVKKGLEYVESLKGTDAIFVTKDDKVYISKDIEGNFEIGKDSGYTMGNRADLKEGGSHHHHHH | soluble |
| MSLKKLILTTAALALSAGMAMADTVRMGTEGAYPPYNFINDAGEVDGFERELGDELCKRAGLTCEWVKNDWDSIIPNLVSGNYDTIIAGMSITDERDEVIDFTQNYIPPTASSYVATSDGADLSGIVAAQTATIQAGYIAESGATLVEFATPEETIAAVRNGEADAVFADRDYLVPIVAESGGELMFVGDDVPLGGGVGMGLRESDGELRGKFDAAITSMKEDGTLNTMIKKWFGEDAAVYEEGHHHHHH | soluble |
| MSLKKSLATIRAEERNYFQSPKWFCDFVEKPIQGLEREEGVHRRDPSSIIKVDNLYYVYYTKSYGPHVGFNTGDLNAKVFPWDYSEIWVATSEDGYVWEEKGVAVTRGEAGRYDDRSVFTVEVMKYDGKYYLVYQTVQHPYVNRSFENIAIAWSDNPLGPFQKSDEPILRPTGDGIWDTEEDNRFLVKKKGSFDSHKVHDPLLFHYRDKFYLYYKGEPMGEEIFMGGRETKWGVAIADSIEGPYIRSEYNPITNSGHETCLWQYKEGMAAFLRTDGVEKNTLQFAEDGINFQIMSVIKWGPEACGPYRPDEIITDDPLEGMKWGMSHSLGKPGCPYGCLVRFDINTKQRDIYAARKKYEEGHHHHHH | soluble |
| MSLKKTTWFAGRFPGYVSPLSSVALSVLAALCPLTSRGESYFNPAFLSADTASVADLSRFEKGNHQPPGIYRVDIWRNDEFVATQDIRFEAGAVGTGDKSGGLMPCFTPEWIKRLGVNTAAFPVSDKGVDTTCIHLPEKIPGAEVAFDFASMRLNISLPQASLLNSARGYIPPEEWDEGIPAALINYSFTGSRGTDSDSYFLSLLSGLNYGPWRLRNNGAWNYSKGDGYHSQRWNNIGTWVQRAIIPLKSELVMGDSNTGNDVFDSFGFRGARLYSSDNMYPDSLQGYAPTVRGIARTAAKLTIRQNGYVIYQSYVSPGAFAITDLNPTSSSGDLEVTVDEKDGSQQRYTVPYSTVPLLQREARVKYDLVAGDFRSGNSQQSSPFFFQGTVIAGLPAGLTAYGGTQLADRYRAVVVGAGRNLGDWGAVSVDVTHARSQLADDSTHQGQSLRFLYAKSLNNYGTNFQLLGYRYSTRGFYTLDDVAYRSMEGYDYEYDSDGRRHKVPVAQSYHNLRYSKKGRFQVNISQNLGDYGSLYLSGSQQNYWNTADTNTWYQLGYASGWQGISYSLSWSWSESVGSSGADRILAFNMSVPFSVLTGRRYARDTILDRTYATFNANRNRDGDNSWQTGVGGTLLEGRNLSYSVTQGRSSSNGYSGSASASWQATYGTLGVGYNYDRDQHDYNWQLSGGVVGHADGITFSQPLGDTNVLIKAPGAKGVRIENQTGVKTDWRGYAVMPYATVYRYNRVALDTNTMDNHTDVENNVSSVVPTEGALVRAAFDTRIGVRAIITARLGGRPLPFGAIVRETASGITSMVGDDGQIYLSGLPLKGELFIQWGEGKNARCIAPYALAEDSLKQAITIASATCIRPASEGGSHHHHHH | soluble |
| MSLKLTKKVGYAGRVITERGLEELEKANISYRLGSIYSNILEKTISANYRFGYVVINRCQVYADFNDVLKIIKSVYESGLAVGDRVGIIDREKFVEINTLCSLNFDNILLQNGIFPLHVCAGVVKYEDGKPVEFKEIIDYKSTSIDPLRAFIEKKETDVMGIIENGEGYLPANFRYFGVEFLERFETILEIDELKCIISYGTENVLGLDVGDDKVGVALIGGLTPIAPFVENNYCVEICPMSSIVRLESLHKLKKNPRDIVTKKANIRIKTALSKMFNAMAKVTYDIDEADGDVIVNTAFIDKKYLDEAFDILKEAYKKGLGISDRFGIVEENDRIKIQTICAVTLDGIFLRNSVPLIPKYGGILEITEDKERFIDIIGYDGSSLDPHEVFFNFVDCEKTFLAGFREVHRVAREKLEEVLKKLNWNGIKAIGEPNNELYGIGVNKDMCGVVTMGGINPLVLLKENEIPIELKAMHEVVRFSDLKSYKEIEGHHHHHH | soluble |
| MSLKNGLRIYALGGISEIGRNMTVFEYNNRLLIVDCGVLFPSSGEPGVDLILPDFGPIENKLDKVDALVITHGHEDHIGAIPWLLKLRPDMPILASKFTMALIAAKCREHRQRPKLIEVNEKSDINRGPFNIRFWAVNHSIPDCLGVAIKTGAGLVIHTGDVKLDQTPPDGRPTDLPALSRFGDEGVDLLLCESTNATVPGFSGSEADVAPTLKRLISDAKQRVILASFASNVYRVQAAVDAAVAAGRKVAFNGRSMIRNMEIAEKMGYLKAPRGTIVSMDDAAKMAPHKVVLITTGTQGEPMAALSRMARREHRQITVRDGDLIILSSSLVPGNEEAVFGVMNMLSQIGATVVTGRDAKVHTSGHGFAGELLFLYNAARPKNVMPVHGEWRHLRANKELAISTGVEADRVVLAQNGVVVDLVDGRARVVGQMQVGHLYVDGVTMGDIDAEVLEERTSLGEGGLIAITAVIDSRTARLLERPTVQAKGFSEDAVAMMPEVTELVEKTMNDLAAEGENDPYRMVQQLRRRVSRFVEQKWRRKPMIMPTVIPTTSATIDIDDADVRASREGHHHHHH | soluble |
| MSLKPGDEVKVLTFGQKGTLLEKTGGNEWNVQIGILKMKVKEKDLEFIKSAPEPKKEKMITAVKGKDYHVSLELDLRGERYENALSRVEKYLDDAVLAGYPRVSIIHGKGTGALRKGVQDLLKNHRSVKSSRFGEAGEGGSGVTVVELKEGHHHHHH | not soluble |
